Experimental data reported in article PMC11369174, “Proteome-scale characterisation of motif-based interactome rewiring by disease mutations” (Molecular Systems Biology, 2024).
“And” between values parts separate entries of the source, which are not always exact repeats. Equal values may be shown once. Values belong to the substance of their own block, whether it stands above or below them.

Experiments:
[1] = biological target: MAP1LC3B ATG8 domain (human) (UniProt Q9GZQ8); assay: ITC; peptide titrated in tenfold excess in 16 injections against the protein domain; 50 mM sodium phosphate pH 7.4, 1 mM DTT; iTC200; wild-type in technical duplicate, mutant in technical triplets; one line of constants for each repeat
[2] = biological target: MAP1LC3B ATG8 domain (human); assay: fluorescence polarisation; displacement: unlabelled peptide titrated onto a complex of FITC-labelled peptide (10 nM) and protein domain (1-2x KD); 50 mM sodium phosphate buffer pH 7.4 (CASK: plus 100 mM NaCl); KD calculated from IC50; technical triplets
[3] = biological target: FITC-TCF3; assay: fluorescence polarisation; saturation binding: dilution series of the protein domain added to 10 nM FITC-labelled peptide; 50 mM sodium phosphate pH 7.4, 0.05% Tween (protein dialysed in 50 mM sodium phosphate with 1 mM DTT; CASK kinase domain with 100 mM NaCl in addition); quadratic fit; technical triplets
[4] = biological target: FITC-3BP2; assay: as above
[5] = biological target: ABL1 SH3 (human) (UniProt P00519); assay: fluorescence polarisation; displacement: unlabelled peptide titrated onto a complex of FITC-labelled peptide (10 nM) and protein domain (1-2x KD); 50 mM sodium phosphate buffer pH 7.4 (CASK: plus 100 mM NaCl); KD calculated from IC50; technical triplets
[6] = biological target: MAP1LC3B ATG8 domain (human); assay: ITC; peptide titrated in tenfold excess in 16 injections against the protein domain; 50 mM sodium phosphate buffer pH 7.4, 1 mM DTT; iTC200
[7] = biological target: importin subunit α-3 (KPNA4) ARM domain; assay: fluorescence polarisation displacement; conditions: major pocket
[8] = biological target: FITC-PER2; assay: fluorescence polarisation; saturation binding: dilution series of the protein domain added to 10 nM FITC-labelled peptide; 50 mM sodium phosphate pH 7.4, 0.05% Tween (protein dialysed in 50 mM sodium phosphate with 1 mM DTT; CASK kinase domain with 100 mM NaCl in addition); quadratic fit; technical triplets

CREBBP KIX domain, sequence (Q92793 587-666): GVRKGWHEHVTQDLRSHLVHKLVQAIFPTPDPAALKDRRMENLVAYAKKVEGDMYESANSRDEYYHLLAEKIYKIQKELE
ABL1 SH3 (human), sequence (P00519 61-121): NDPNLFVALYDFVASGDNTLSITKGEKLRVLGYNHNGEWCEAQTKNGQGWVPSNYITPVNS
ABL1 SH3 domain, sequence (P00519 61-121): as above

Substance: BRCA2 292-307 peptide, wild-type
Kd [1]: 109 µM and 63.7 µM and 18.2 µM | stoichiometry N [1]: 0.7 and 0.684

Substance: BRCA2 292-307 peptide, mutant T298I/V299L/V300R
stoichiometry N [1]: 0.744 and 0.685 and 0.649

Substance: CREBBP KIX domain (from UniProt Q92793 587-666) (domain or fragment)
Kd [3]: 35 µM

Substance: ABL1 SH3 domain (from UniProt P00519 61-121) (domain or fragment)
Kd [4]: 3.7 µM

Substance: BRCA2_(292-307) T298I/V299L/V300R peptide
Kd [6]: 2 µM | Kd [2]: 0.52 µM

Substance: ABRAXAS1_(349-364) wild-type peptide R361Q
Kd [7]: 75 µM

Substance: SQSTM1 334-349 P348L peptide
Kd [2]: 0.6 µM

Now from value to substance:

Kd [2]: 7 µM
Substance: BUB1_(486-501) wild-type peptide

Kd [5]: 560 µM
Substance: TP53 64-80 P72R peptide

Kd [6]: 20 to 100 µM | Kd [2]: 3.12 µM
Substance: BRCA2_(292-307) wild-type peptide

Kd [2]: 0.5 µM
Substance: SQSTM1 334-349 wild-type peptide

Kd [8]: 3.4 µM
Substance: Peripheral plasma membrane protein CASK (CASK) kinase domain (from UniProt O14936 12-276) (domain or fragment)

Kd [2]: 1.6 µM
Substance: BUB1_(486-501) S492F peptide
